Bridges are numbered along the chain shown (N, C = ends). Where no end group is shown, it is not given here.
B1: recombinant human IL-23 (ligand)
chain 1: RAVPGGSSPAWTQCQQLSQKLCTLAWSAHPLVGHMDLREEGDEETTNDVPHIQCGDGCDPQGLRDNSQFCLQRIHQGLIFYEKLLGSDIFTGEPSLLPDSPVGQLHASLLGLSQLLQPEGHHWETQQIPSLSPSQPWQRLLLRFKILRSLQAFVAVAARVFAHGAATLSP
chain 2: IWELKKDVYVVELDWYPDAPGEMVVLTCDTPEEDGITWTLDQSSEVLGSGKTLTIQVKEFGDAGQYTCHKGGEVLSHSLLLLHKKEDGIWSTDILKDQKEPKNKTFLRCEAKNYSGRFTCWWLTTISTDLTFSVKSSRGSSDPQGVTCGAATLSAERVRGDNKEYEYSVECQEDSACPAAEESLPIEVMVDAVHKLKYENYTSSFFIRDIIKPDPPKNLQLKPLKNSRQVEVSWEYPDTWSTPHSYFSLTFCVQVQGKSKREKKDRVFTDKTSATVICRKNASISVRAQDRYYSSSWSEWASVPCS
B2: M13 phage displaying polypeptide no. 6 (peptide, not shown: large carriers)
chain: MPDWHAFYLQAQ
B3: M13 phage displaying polypeptide no. 2 (peptide, not shown: large carriers)
chain: TENWWTMVPRWM
B4: M13 phage displaying polypeptide no. 32 (peptide, not shown: large carriers)
chain: TSWQSFWHHHNT
B5: M13 phage displaying polypeptide no. 5 (peptide, not shown: large carriers)
chain: NWTSQLHTGIST
notes: also called nos
B6: M13 phage displaying polypeptide no. 29 (peptide, not shown: large carriers)
chain: EPFAWHAYWVRN
B7: M13 phage displaying polypeptide no. 4 (peptide, not shown: large carriers)
chain: AETPSWYNYWMN
notes: also called nos
B8: M13 phage displaying polypeptide no. 20 (peptide, not shown: large carriers)
chain: SALSWEHYWRKH
notes: also called no
B9: M13 phage displaying polypeptide no. 10 (peptide, not shown: large carriers)
chain: ASWEMYWATSYN
B10: M13 phage displaying polypeptide no. 7 (peptide, not shown: large carriers)
chain: QSDTWMTYWKHH
B11: cyclic polypeptide no. 23.19 (peptide)
peptide: CAMTWQDYWLYGRC
modifications: disulfide 1-14
notes: also called cyc23.15
B12: synthetic polypeptide no. 23 (peptide)
peptide: AMTWEDWWLYGR
notes: also called peptide number 23
B13: M13 phage displaying polypeptide no. 15 (peptide, not shown: large carriers)
chain: DSDWRWFWENHW
B14: M13 phage displaying polypeptide no. 18 (peptide, not shown: large carriers)
chain: STWQEYYDVWQK
B15: synthetic polypeptide no. 1 (peptide)
peptide: SGASWVQYWVQR
notes: also called peptide number 1
B16: modified synthetic polypeptide no. 1.1 (peptide)
peptide: SGASFVQYWVQR
B17: modified synthetic polypeptide no. 1.2 (peptide)
peptide: SGASWVQYFVQR
B18: modified synthetic polypeptide no. 1.3 (peptide)
peptide: SGASFVQYFVQR
B19: recombinant human IL-23R/Fc chimera (Fc fusion, UniProt Q5VWK5 24-353, looked up)
chain: GITNINCSGHIWVEPATIFKMGMNISIYCQAAIKNCQPRKLHFYKNGIKERFQITRINKTTARLWYKNFLEPHASMYCTAECPKHFQETLICGKDISSGYPPDIPDEVTCVIYEYSGNMTCTWNAGKLTYIDTKYVVHVKSLETEEEQQYLTSSYINISTDSLQGGKKYLVWVQAANALGMEESKQLQIHLDDIVIPSAAVISRAETINATVPKTIIYWDSQTTIEKVSCEMRYKATTNQTWNVKEFDTNFTYVQQSEFYLEPNIKYVFQVRCQETGKRYWQPWSSLFFHKTPETVPQVTSKAFQHDTWNSGLTVASISTGHLTSDNRGD
notes: range 24-353; bought (R&D Systems Cat. No. 1400-IR-050); also called rhIL23R-Fc; IL-23R/Fc fusion protein; not shown: human IgG1 Fc, residues 100-330
B20: M13 phage displaying polypeptide no. 3 (peptide, not shown: large carriers)
chain: DQERWLSYFLGT
B21: M13 phage displaying polypeptide no. 13 (peptide, not shown: large carriers)
chain: YSWEWYATRFVQ
B22: M13 phage displaying polypeptide no. 22 (peptide, not shown: large carriers)
chain: AVWQNYWNEQLY
B23: synthetic polypeptide no. 27 (peptide)
peptide: DDWMQYWRQQVR
B24: M13 phage displaying polypeptide no. 25 (peptide, not shown: large carriers)
chain: AWQDVWKMHNKV
B25: M13 phage displaying polypeptide no. 30 (peptide, not shown: large carriers)
chain: HDWQTYWVTRER
B26: M13 phage displaying polypeptide no. 19 (peptide, not shown: large carriers)
chain: NWIDWWTQSEKH
B27: synthetic polypeptide no. 9 (peptide)
peptide: NWATYWQLRHQT
notes: also called peptide number 9
B28: cyclic peptide no. 2HT AA (peptide)
peptide: AKMTWVDYWLKNCA
modifications: cyclic: head-to-tail amide bond (alanine to alanine)
notes: cyclised form of linear peptide no; also called cyclic polypeptide no; 2HT AA (Head to Tail: Alanine to Alanine)

Key:
[1] = biological target: T1, human IL-23R expressed on the cell surface (human, UniProt Q5VWK5 24-629); assay: cell-based or functional assay
T1 sequence (looked up): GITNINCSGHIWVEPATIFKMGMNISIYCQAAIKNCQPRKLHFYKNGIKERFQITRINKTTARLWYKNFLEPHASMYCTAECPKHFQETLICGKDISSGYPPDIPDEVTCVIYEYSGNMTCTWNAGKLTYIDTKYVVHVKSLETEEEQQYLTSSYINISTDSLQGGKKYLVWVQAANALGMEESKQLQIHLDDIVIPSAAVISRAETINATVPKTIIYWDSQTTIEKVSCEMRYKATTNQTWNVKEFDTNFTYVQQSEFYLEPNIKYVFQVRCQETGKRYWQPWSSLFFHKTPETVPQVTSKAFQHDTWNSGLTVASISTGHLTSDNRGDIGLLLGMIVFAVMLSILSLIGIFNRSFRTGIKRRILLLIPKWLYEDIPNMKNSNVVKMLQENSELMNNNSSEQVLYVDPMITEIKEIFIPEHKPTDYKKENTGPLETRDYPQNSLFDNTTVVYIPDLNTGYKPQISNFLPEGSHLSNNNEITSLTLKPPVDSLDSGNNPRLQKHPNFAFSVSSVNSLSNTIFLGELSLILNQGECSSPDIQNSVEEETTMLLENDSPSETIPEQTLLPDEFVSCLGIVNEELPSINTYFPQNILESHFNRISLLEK

[2] = biological target: B19; assay: phage ELISA on coated IL-23R/Fc, anti-M13 detection
[3] = biological target: B19; assay: phage display panning, protein A capture
[4] = biological target: T2, recombinant mouse IL-23R-Fc (mouse, UniProt Q8K4B4 24-374, limits assumed); assay: competitive ELISA against mouse IL-23 on coated mouse IL-23R-Fc
T2 construct: whole entry named; not shown: Fc part, not described
T2 sequence (looked up): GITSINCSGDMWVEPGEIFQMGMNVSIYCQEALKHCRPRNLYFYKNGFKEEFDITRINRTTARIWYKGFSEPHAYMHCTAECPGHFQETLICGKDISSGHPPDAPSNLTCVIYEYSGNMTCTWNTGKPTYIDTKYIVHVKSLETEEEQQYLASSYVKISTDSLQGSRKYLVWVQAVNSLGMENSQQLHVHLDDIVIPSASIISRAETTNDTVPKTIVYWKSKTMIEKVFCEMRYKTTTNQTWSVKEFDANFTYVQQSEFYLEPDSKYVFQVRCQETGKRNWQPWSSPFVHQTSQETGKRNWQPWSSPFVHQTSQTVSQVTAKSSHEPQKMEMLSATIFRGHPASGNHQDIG

[5] = biological target: B19; assay: competitive ELISA against IL-23 (50 ng/well) on coated IL-23R-Fc
[6] = biological target: B19; assay: competitive ELISA on coated IL-23R-Fc, 50 µM peptide
[7] = biological target: T3, WT IL-23 cytokine (wild type p19 + p40, expressed in 293T cells) (human, UniProt Q9NPF7 20-189; P29460 23-328); assay: ELISA of conditioned media on coated IL-23R-Fc, anti-p40 detection
T3 construct: conditioned medium in the ELISAs; purified on HisTALON for the reporter assay; also called isolated WT IL-23 cytokine; not shown: 6xHis tag at the C-terminus
T3 sequence (looked up) 1: B1 chain 1
T3 sequence (looked up) 2: B1 chain 2

[8] = biological target: B19; assay: cell-free competitive ELISA against IL-23 on coated IL-23R-Fc
[9] = biological target: IL-23 receptor on Sprague Dawley rat splenocytes (rat); assay: cell-based or functional assay

B1
reporter luciferase activity, DB STAT3-Luc cells, 50 ng/ml [1]: ~10 fold

B2
binding result [2]: binds

B3
binding result [3]: binds

B4
binding result [3]: binds

B5
binding result [2]: binds

B6
binding result [3]: binds

B7
binding result [2]: binds

B8
binding result [3]: binds

B9
binding result [2]: binds

B10
binding result [2]: binds

B11
IC50 [4]: 12.5 µM
IC50, DB STAT3-Luc reporter cells, 50 ng/ml IL-23 [1]: 2.5 µM

B12
IC50 [5]: 0 to 1.56 µM

B13
binding result [3]: binds

B14
binding result [3]: binds

B15
IC50 [5]: 6.25 to 12.5 µM
relative level of p-STAT3/STAT3 at 50 µM peptide [1]: ~0.6 ratio
relative level of p-STAT3/STAT3 at 100 µM peptide [1]: ~0.3 ratio
relative p-STAT3/STAT3 level at 10 µM, 5 µM and 1 µM peptide [1]: > 1.5 ratio

B16
OD450 of bound IL-23 with the peptide as competitor [6]: ≥ 0.4 OD450

B17
OD450 of bound IL-23 with the peptide as competitor [6]: ≥ 0.4 OD450

B18
OD450 of bound IL-23 with the peptide as competitor [6]: ≥ 0.4 OD450

B19
binding result [7]: binds

B20
binding result [3]: binds

B21
binding result [3]: binds

B22
binding result [3]: binds

B23
IC50 [5]: ~1.56 µM

B24
binding result [3]: binds

B25
binding result [3]: binds

B26
binding result [3]: binds

B27
IC50 [5]: ~3 µM

B28
IC50 [8]: 0.0081 µM
IC50, IL-17F production (ELISA) in differentiated human Th17 cells, 1 ng/ml IL-23 [1]: 0.339 µM
IC50, IL-22 production (ELISA) in human PBMC, 2 ng/ml IL-23 [1]: 0.338 µM
IC50, cell-based DB-Luc assay [1]: 0.342 µM
IC50, IL-17F mRNA (qRT-PCR) in rat splenocytes, 200 ng/ml IL-23 [9]: 0.27 µM

Source: patent USRE49026 (MEDICAL DIAGNOSTIC LABORATORIES, dated 2022)
